According to patent publication US20210403582A1 (JACOBIO PHARMACEUTICALS, published 2021):

Legend:
[1] = target: recombinant machin LIF protein (machin, UniProt A0A2K5UCA8 23-202); assay: ELISA, machin LIF coated at 0.5 µg/mL, A450
Description: The recombinant machin LIF protein (purchased from Sino biological) was diluted to 0.5 μg/mL, and was coated on the enzyme label plate, 100 μL of protein was added into every well, and incubated overnight in 4° C. The enzyme label plates were taken out next day, and the liquid was discarded, and were washed with PBST three times and blocked with 2% BSA in PBS for 1 h at room temperature, then washed with PBST three times, and added anti-human LIF antibodies 38E10E1C11, 5D8 and P36-033 at different concentrations and incubated for 1 h at room temperature. The liquid was discarded, and the plates were washed with PBST four times. The plates were added with HRP-labeled goat anti-mouse Fab antibody or goat anti-human FC antibody and incubated for 1 h at room temperature. Then the liquid was discarded, and the plates were washed with PBST four times and incubated with TMB colored solution in 10 minutes at room temperature. Stop color development by adding 2 mol/L H₂SO₄, and the absorption value at 450 nm is quantitated using an automated plate photometer, and the results were shown in FIG. 3.

[2] = target: T1, Mut4 heterozygous LIF protein (human LIF with residues 166-202 of …, UniProt P15018 23-201, limits assumed); assay: western blot of 293T culture supernatants, primary antibody 38E10E1C11, HRP goat anti-mouse Fab
T1 construct: Secreted into the supernatant of transfected 293T cells; also called Mut4 protein

[3] = target: T2, Mut3 heterozygous LIF protein (human LIF with residues 182-202 of …, UniProt P15018 23-201, limits assumed); assay: as above
T2 construct: Secreted into the supernatant of transfected 293T cells; also called Mut3 protein

[4] = target: T3, human OSM (human, UniProt P13725 26-221, limits assumed); assay: ELISA, human OSM coated at 1 µg/mL, HRP goat anti-mouse Fab, A450
T3 sequence (looked up): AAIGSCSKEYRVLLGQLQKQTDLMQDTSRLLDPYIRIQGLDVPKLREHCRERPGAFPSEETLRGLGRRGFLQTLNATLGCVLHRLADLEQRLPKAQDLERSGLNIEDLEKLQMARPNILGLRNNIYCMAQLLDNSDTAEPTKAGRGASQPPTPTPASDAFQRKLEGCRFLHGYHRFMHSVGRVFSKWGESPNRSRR
Description: (§1) After washed four times with PBST, HRP-labeled goat anti-mouse Fab secondary antibodies were added and incubated at room temperature for 1 h. After washed four times with PBST, TMB colored solution was added and color developing for 10 min at room temperature. The absorption value at 450 nm was read by the enzyme maker. The data were analyzed and plotted using Origin pro 9 software.

[5] = target: T4, human LIF protein (human, UniProt P15018 23-202); assay: competition ELISA: human LIF coated at 1 µg/mL, LIFR-Fc 0.6125 µg/mL added together with the antibody, A450
T4 construct: Bought recombinant protein (Sino Biological / Yiqiao Shenzhou 14890-HNAH) in most assays; also called recombinant human LIF protein; rhLIF
Description: (§2) The recombinant human LIF protein was coated on the enzyme label plate at a concentration of 1 μg/mL, LIFR protein (expressed fusedly with human FC) at a concentration of 0.6125 μg/mL was added (50 μL/well), and the anti-human LIF antibodies 38E10E1C11, P36-033 and 38E10E1C11R which is recombinantly expressed by CHO cells (SEQ ID NOs: 41 and 43) at different concentrations simultaneously were added separately (50 μL/well) and incubated for 2 h at room temperature. After washed four times with PBST, incubated with HRP-labeled goat anti-mouse FC secondary antibody for 1 h at room temperature. Then the plates were washed four times with PBST and added with TMB coloured solution in for 10 minutes. The absorption value at 450 nm is quantitated using an enzyme-labelling measuring instrument, and the data was analyzed and plotted using Origin pro 9 software.

[6] = target: T4, human LIF protein; assay: as above; remark: listed apart in the source
Description: as §2

[7] = target: T4, human LIF protein; assay: competition ELISA: human LIF coated at 1 µg/mL, GP130-Fc 20 µg/mL added together with the antibody, A450
Description: The recombinant human LIF protein was coated on the enzyme label plates at a concentration of 1 μg/mL, GP130 protein (expressed fusedly with human FC) at a concentration of 20 μg/mL was added (50 μL/well), and the anti-human LIF antibodies P36-033 and 38E10E1C11 at different concentrations simultaneously were added separately (50 μL/well), and incubated for 2 h at room temperature. At the same time, the control wells added with antibodies and without GP130 protein were set. Incubated for 2 h at room temperature. After washed four times with PBST, incubated with HRP-labeled goat anti-mouse FC secondary antibody for 1 h at room temperature. Then the plates were washed four times with PBST and added with TMB coloured solution in for 10 minutes. The absorption value at 450 nm is quantitated using an enzyme-labelling measuring instrument, and the data was analyzed and plotted using Origin pro 9 software.

[8] = target: human IL-6 (human, UniProt P05231 30-212, limits assumed); assay: ELISA, human IL-6 coated at 1 µg/mL, HRP goat anti-mouse Fab, A450
Description: as §1

[9] = target: T4, human LIF protein; assay: competition ELISA, LIF coated, competitor LIFR-Fc 0.6125 ug/mL detected with anti-human Fc

recombinant machin LIF protein, sequence (A0A2K5UCA8 entry or part of it limits assumed): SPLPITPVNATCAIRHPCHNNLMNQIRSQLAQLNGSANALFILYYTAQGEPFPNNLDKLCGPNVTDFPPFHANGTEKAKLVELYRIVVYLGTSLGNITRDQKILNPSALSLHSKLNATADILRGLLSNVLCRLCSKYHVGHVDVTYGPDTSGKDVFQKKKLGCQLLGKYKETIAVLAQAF
human IL-6, sequence (P05231 30-212 limits assumed): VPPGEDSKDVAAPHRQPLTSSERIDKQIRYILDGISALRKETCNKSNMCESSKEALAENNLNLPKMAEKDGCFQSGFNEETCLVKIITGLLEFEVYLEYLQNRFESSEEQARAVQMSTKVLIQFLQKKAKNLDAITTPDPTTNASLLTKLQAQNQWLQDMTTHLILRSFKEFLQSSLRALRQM

B1: 38E10E1C11 antibody (antibody, mouse IgG1, kappa)
heavy: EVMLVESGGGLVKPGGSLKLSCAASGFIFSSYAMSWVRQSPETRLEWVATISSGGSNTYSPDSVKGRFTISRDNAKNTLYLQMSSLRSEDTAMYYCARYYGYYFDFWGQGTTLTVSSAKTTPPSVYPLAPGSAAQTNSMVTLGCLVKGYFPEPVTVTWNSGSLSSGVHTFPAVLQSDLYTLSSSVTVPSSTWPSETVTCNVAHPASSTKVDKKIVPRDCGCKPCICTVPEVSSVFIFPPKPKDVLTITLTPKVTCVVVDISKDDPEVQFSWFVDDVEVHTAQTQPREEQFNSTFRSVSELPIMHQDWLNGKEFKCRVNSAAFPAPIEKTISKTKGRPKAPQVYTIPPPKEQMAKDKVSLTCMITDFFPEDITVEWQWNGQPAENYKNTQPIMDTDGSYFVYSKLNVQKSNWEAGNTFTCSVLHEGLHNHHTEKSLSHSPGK
light: DIHMTQSPASLSASVGETVTITCRASENIYSYLAWYQQKQGKSPQLLVYNAKTLAEGVPSRFSGSGSGTQFSLKINSLQPEDFGSYYCQHHYVTPLTFGAGTKLELKRADAAPTVSIFPPSSEQLTSGGASVVCFLNNFYPKDINVKWKIDGSERQNGVLNSWTDQDSKDSTYSMSSTLTLTKDEYERHNSYTCEATHKTSTSPIVKSFNRNEC
notes: Mouse IgG1, kappa light chain; also called 38E10E1C11 mAb; mAb38E10E1C11
EC50 (read off the curve) [1]: ~0.07 µg/mL | binding result [2]: no binding | binding result [3]: binds | binding result [4]: no binding (tested: 25 ug/ml) | IC50 (read off the curve) [5]: ~0.1 µg/mL | IC50 (read off the curve) [6]: ~0.3 µg/mL | IC50 (read off the curve) [7]: ~0.6 µg/mL | binding result [8]: no binding (tested: 25 ug/ml) | IC50 [9]: 0.074 µg/mL
